Experimental data: patent publication US20150010566A1 (AIMM THERAPEUTICS B V, published 2015)

B1: AT10-003 (antibody, V domains shown)
VH: QVHLVQSGAEVRKPGASVKVSCKVSGYTLNELSIHWLRQAPGRGLEWMGSFDPEDGETIYAQKFQGRVTMTGDTSTDTAYLELTSLRSEDTALYYCARGWGAVTSPFDFWGQGTLVTVSS
VL: DIVMTQSPLSLPVTPGEPASISCRSSQSLLHSNGHIYFDWYLQKPGQSPQLLIYLVSKRASGVPDRFSGSGSGTDFTLKISRVEAEDVGVYYCMQALETPFTFGPGTKVHIKR
B2: AT10-002 (antibody, V domains shown)
VH: QLQLQESGPRLVKPSETLSLTCSVSGVSISSSNYYWGWIRQPPGKGLEWIGTIYHSGSTYYNPSLKSRLIISVDTSKNQFYLQLTSLTAADSAVYYCATGGGFGWSQTYFGYWGQGTLVTASS
VL: QSALTQPASVSGSPGQSITISCTGTSSDVGAYNYVSWYQHHPGKAPKLMIYDVTYRPSGVSTRFSGSKSGNTASLTISGLQAEDEADYYCSSQSRSSTLVIFGGGTKLTVLG
B3: AT10-004 (antibody, V domains shown)
VH: QVQLVQSGAEVRKPGASVKVSCKASGYTFTRHGISWVRQAPGQGLEWMGWISAYTGDTDYAQKFQGRVTMTTDTSTNTAYMELRSLRSDDAAVYYCARLRLQGEVVVPPSQSNWFDPWGQGTLVTVSS
VL: EIVLTQSPATLSLYPGERATLSCRASQSVSRYLAWYQQKPGQAPRLLIYDASNRATGIPARFSGSGSGTDFTLTISSLEPEDFAVYYCQQRSNWLKITFGQGTRLEIKG
B4: AT10-001 (antibody, V domains shown)
VH: EVQLLESGGGLVQPGGSLRLSCAASGFSFSTYAMSWVRQAPGKGLEWVSGISGSGESTYYADSVKGRFTVSRDNSKNTLYLQMNSLRAEDTAVYYCAKQGDHIAWLLRGINFDYWGQGVLVTVSS
VL: EIVLTQSPGTLSLSPGERATLSCRASQSVSSSYLAWYQQKPGQAPRLLIYGASTRATGIPDRFSGRGSGTDFTLTISSLEPEDFAVYYCQNYGSPFLFTFGPGTKVDIKR
B5: AT10-005 (antibody, V domains shown)
VH: QVQLVQSGAEVKKPGSSVKVSCKASGGAFSNYAISWVRQAPGQGLEWMGGIIPIFGTTNYAQKFQGRVTITADKFTTIAYMELRSLRSEDTAVYYCARHGGVYYYGSASSGWFDPWGQGTLVTVSS
VL: EIVLTQSPGTLSLSPGERATLSCRASQSVSSSYLAWYQQKPGQAPRLLIFGASTRATGIPDRFSGSGSGTDFTLTISRLEPEDFAVFYCQQYGSLPLTFGGGTKVEIKG

Target: T1, recombinant HA of full length H3 (A/Aichi/2/1968, full length) (Influenza A virus H3N2 A/Aichi/2/1968 …, UniProt P03437 17-530)
T1 construct: domain: full length; also called H3N2 A/Aichi/2/1968 Full length; full-length H3 HA protein
Assay: ELISA; antigen coated 1 µg/ml; recombinant antibody
Parameters: concentration or dose not given beside the values

Binder	OD 450 nm [OD 450 nm]
B1	1.32
B2	0.92
B3	0.491
B4	0.953

Target: HA of H3N2 HKX-31 virus (Influenza A virus H3N2 HKX-31)
Assay: cell-based or functional assay

Binder	IC50, in vitro virus neutralization on MDCK-SIAT cells [µg/mL]
B1	> 15
B2	0.25
B4	2.1

Target: HA of Influenza H1N1 (A/Hawaii/31/2007), on infected MDCK-SIAT cells or on virus (Influenza A virus H1N1 A/Hawaii/31/2007)
Assay: cell-based or functional assay

Binder	IC50, in vitro virus neutralization on MDCK-SIAT cells [µg/mL]
B4	> 15

Target: HA of H5N1 A/turkey/Turkey/05 virus (Influenza A virus H5N1 …)
Assay: cell-based or functional assay

Binder	IC50, in vitro virus neutralization on MDCK cells [µg/mL]
B1	> 15
B2	> 15
B4	> 15
B5	1.3
